According to the Immune Epitope Database (IEDB):

Tests used:
HLA-B*46:01 = test: IEDB peptide-MHC binding, purified MHC/competitive/fluorescence; filed as Kd, often an IC50 or EC50 that approximates it; ≥ and ≤ were set here for values at or beyond the usual limits of such assays; details: source organism: Giardia lamblia ATCC 50803
HLA-B*07:02 = test: IEDB peptide-MHC binding, purified MHC/direct/fluorescence; filed as Kd, often an IC50 or EC50 that approximates it; ≥ and ≤ were set here for values at or beyond the usual limits of such assays; details: source organism: Giardia lamblia ATCC 50803
HLA-B*08:01 = test: as above; details: source organism: Giardia lamblia ATCC 50803
HLA-B*27:05 = test: as above; details: source organism: Giardia lamblia ATCC 50803
HLA-A*01:01 = test: as above; details: source organism: Giardia lamblia ATCC 50803
HLA-B*58:01 = test: as above; details: source organism: Giardia lamblia ATCC 50803
HLA-A*69:01 = test: as above; details: source organism: Giardia lamblia ATCC 50803
HLA-A*26:01 = test: as above; details: source organism: Giardia lamblia ATCC 50803
HLA-A*31:01 = test: as above; details: source organism: Giardia lamblia ATCC 50803
HLA-B*40:01 [1] = test: as above; details: source organism: Giardia lamblia ATCC 50803
HLA-A*03:01 [2] = test: as above; details: source organism: Giardia lamblia ATCC 50803
HLA-B*15:01 = test: as above; details: source organism: Giardia lamblia ATCC 50803
HLA-A*11:01 = test: as above; details: source organism: Giardia lamblia ATCC 50803
HLA-B*44:02 [3] = test: as above; details: source organism: Giardia lamblia ATCC 50803
HLA-B*40:02 = test: IEDB peptide-MHC binding, purified MHC/competitive/radioactivity; filed as Kd, often an IC50 or EC50 that approximates it; ≥ and ≤ were set here for values at or beyond the usual limits of such assays
HLA-B*44:03 = test: as above
HLA-B*18:01 = test: as above
HLA-B*40:01 [4] = test: as above
HLA-B*45:01 = test: as above
HLA-B*44:02 [5] = test: as above
HLA-A*02:01 = test: IEDB peptide-MHC binding, purified MHC/direct/fluorescence; filed as Kd, often an IC50 or EC50 that approximates it; ≥ and ≤ were set here for values at or beyond the usual limits of such assays; details: source organism: Giardia lamblia ATCC 50803
HLA-A*03:01 [6] = test: IEDB peptide-MHC binding, purified MHC/competitive/fluorescence; filed as Kd, often an IC50 or EC50 that approximates it; ≥ and ≤ were set here for values at or beyond the usual limits of such assays; details: source organism: Influenza A virus (A/Puerto Rico/8/1934(H1N1))
[7] = source organism: SARS coronavirus Tor2
[8] = source organism: Mammarenavirus guanaritoense
[9] = source organism: Lymphocytic choriomeningitis virus (strain Armstrong)

Q: Which results are given for AAFLDDNAF?
A: Kd (HLA-B*46:01): 0.118 µM; Kd (HLA-B*07:02): ≥ 20 µM; Kd (HLA-B*08:01): ≥ 20 µM; Kd (HLA-B*27:05): ≥ 20 µM; Kd (HLA-A*01:01): ≥ 20 µM; Kd (HLA-B*58:01): ≥ 20 µM; Kd (HLA-A*69:01): ≥ 20 µM; Kd (HLA-A*26:01): ≥ 20 µM; Kd (HLA-A*31:01): ≥ 20 µM; Kd (HLA-B*40:01 [1]): ≥ 20 µM; Kd (HLA-A*03:01 [2]): ≥ 20 µM; Kd (HLA-B*15:01): 0.106 µM; Kd (HLA-A*11:01): ≥ 20 µM; Kd (HLA-B*44:02 [3]): ≥ 20 µM

Q: Which results are given for AEAAVKPLL?
A: Kd (HLA-B*40:02; [7]): 19.5 µM; Kd (HLA-B*44:03; [7]): 0.0536 µM; Kd (HLA-B*18:01; [7]): ≥ 77.5 µM; Kd (HLA-B*40:01 [4]; [7]): 0.00843 µM; Kd (HLA-B*45:01; [7]): 0.152 µM; Kd (HLA-B*44:02 [5]; [7]): 0.0608 µM

Q: With AEAYCTGML as the sequence, how does the Kd (HLA-B*40:02; [8]) read?
A: Its Kd is 0.111 µM.

Q: What about the Kd (HLA-B*44:03; [8]) of the same sequence?
A: The Kd was 0.343 µM.

Q: And the Kd (HLA-B*18:01; [8])?
A: Its Kd is ≥ 77.5 µM.

Q: And the Kd (HLA-B*40:01 [4]; [8])?
A: Its Kd is 0.116 µM.

Q: And the Kd (HLA-B*45:01; [8])?
A: The Kd was 1.38 µM.

Q: What about the Kd (HLA-B*44:02 [5]; [8]) of the same sequence?
A: Its Kd is 0.182 µM.

Q: How did the Kd (HLA-B*07:02) turn out when AEFWDVFLS was run?
A: The Kd was ≥ 20 µM.

Q: And the Kd (HLA-B*08:01)?
A: Its Kd is ≥ 20 µM.

Q: And the Kd (HLA-A*02:01)?
A: The Kd was ≥ 20 µM.

Q: And the Kd (HLA-B*27:05)?
A: Its Kd is ≥ 20 µM.

Q: What about the Kd (HLA-A*01:01) of the same sequence?
A: The Kd was ≥ 20 µM.

Q: What about the Kd (HLA-B*58:01) of the same sequence?
A: The Kd was ≥ 20 µM.

Q: And the Kd (HLA-A*69:01)?
A: The Kd was ≥ 20 µM.

Q: And the Kd (HLA-A*26:01)?
A: Its Kd is ≥ 20 µM.

Q: What about the Kd (HLA-A*31:01) of the same sequence?
A: Its Kd is ≥ 20 µM.

Q: And the Kd (HLA-B*40:01 [1])?
A: Its Kd is 0.0499 µM.

Q: What about the Kd (HLA-A*03:01 [2]) of the same sequence?
A: Its Kd is ≥ 20 µM.

Q: And the Kd (HLA-B*15:01)?
A: Its Kd is ≥ 20 µM.

Q: What about the Kd (HLA-A*11:01) of the same sequence?
A: Its Kd is ≥ 20 µM.

Q: What about the Kd (HLA-B*44:02 [3]) of the same sequence?
A: The Kd was ≥ 20 µM.

Q: Which Kd (HLA-B*40:02; [7]) does the source give for AEGSRGGSQA here?
A: Its Kd is 18.8 µM.

Q: And the Kd (HLA-B*44:03; [7])?
A: Its Kd is 14.6 µM.

Q: And the Kd (HLA-B*18:01; [7])?
A: The Kd was ≥ 70.5 µM.

Q: What about the Kd (HLA-B*40:01 [4]; [7]) of the same sequence?
A: The Kd was ≥ 27.9 µM.

Q: What about the Kd (HLA-B*45:01; [7]) of the same sequence?
A: The Kd was 0.205 µM.

Q: What about the Kd (HLA-B*44:02 [5]; [7]) of the same sequence?
A: The Kd was 8.48 µM.

Q: Which Kd (HLA-B*40:02; [7]) does the source give for AEVVKLPSRY here?
A: The Kd was ≥ 22.2 µM.

Q: What about the Kd (HLA-B*44:03; [7]) of the same sequence?
A: The Kd was 0.0764 µM.

Q: What about the Kd (HLA-B*18:01; [7]) of the same sequence?
A: Its Kd is 4.99 µM.

Q: And the Kd (HLA-B*40:01 [4]; [7])?
A: The Kd was 15 µM.

Q: What about the Kd (HLA-B*45:01; [7]) of the same sequence?
A: The Kd was 9.83 µM.

Q: What about the Kd (HLA-B*44:02 [5]; [7]) of the same sequence?
A: Its Kd is 0.144 µM.

Q: CIYRRFKYGLK was tested. Which Kd (HLA-A*03:01 [6]) did it give?
A: The Kd was 0.0056 µM.

Q: Which results are given for DEDDSEPVL?
A: Kd (HLA-B*40:02; [7]): 3.17 µM; Kd (HLA-B*44:03; [7]): 15.8 µM; Kd (HLA-B*18:01; [7]): 5.29 µM; Kd (HLA-B*40:01 [4]; [7]): 0.137 µM; Kd (HLA-B*45:01; [7]): 17.9 µM; Kd (HLA-B*44:02 [5]; [7]): ≥ 38.3 µM

Q: For DESALNISGY, which Kd (HLA-B*40:02; [8]) is on record?
A: The Kd was ≥ 29.2 µM.

Q: And the Kd (HLA-B*44:03; [8])?
A: Its Kd is 3.37 µM.

Q: And the Kd (HLA-B*18:01; [8])?
A: Its Kd is 0.0225 µM.

Q: What about the Kd (HLA-B*40:01 [4]; [8]) of the same sequence?
A: The Kd was ≥ 69.5 µM.

Q: And the Kd (HLA-B*45:01; [8])?
A: The Kd was ≥ 70 µM.

Q: What about the Kd (HLA-B*44:02 [5]; [8]) of the same sequence?
A: Its Kd is 10.9 µM.

Q: EDFLLMYEM was tested. Which Kd (HLA-B*40:02; [8]) did it give?
A: The Kd was 0.00567 µM.

Q: And the Kd (HLA-B*44:03; [8])?
A: Its Kd is 2.55 µM.

Q: What about the Kd (HLA-B*18:01; [8]) of the same sequence?
A: Its Kd is 0.0921 µM.

Q: What about the Kd (HLA-B*40:01 [4]; [8]) of the same sequence?
A: Its Kd is 16.9 µM.

Q: What about the Kd (HLA-B*45:01; [8]) of the same sequence?
A: The Kd was 4.64 µM.

Q: What about the Kd (HLA-B*44:02 [5]; [8]) of the same sequence?
A: Its Kd is 0.582 µM.

Q: Which Kd (HLA-B*40:02; [9]) does the source give for EDQLLPFMS here?
A: The Kd was ≥ 65.4 µM.

Q: What about the Kd (HLA-B*44:03; [9]) of the same sequence?
A: The Kd was ≥ 78.1 µM.

Q: And the Kd (HLA-B*18:01; [9])?
A: The Kd was ≥ 55.5 µM.

Q: What about the Kd (HLA-B*40:01 [4]; [9]) of the same sequence?
A: The Kd was ≥ 59.3 µM.

Q: What about the Kd (HLA-B*45:01; [9]) of the same sequence?
A: The Kd was 3.73 µM.

Q: And the Kd (HLA-B*44:02 [5]; [9])?
A: The Kd was ≥ 35.2 µM.
